Data taken from publication PMC7229152.

Assays:
[1] = molecular target: Act88F^WT Drosophila indirect flight muscle (IFM) actin, filamentous (F-Act88F^WT) (Drosophila melanogaster) (UniProt P83967)
[2] = molecular target: Act88F^M305L Drosophila indirect flight muscle (IFM) actin, filamentous (F-Act88F^M305L) (Drosophila melanogaster)

porcine cardiac tropomyosin (Tpm), sequence (P42639 whole entry): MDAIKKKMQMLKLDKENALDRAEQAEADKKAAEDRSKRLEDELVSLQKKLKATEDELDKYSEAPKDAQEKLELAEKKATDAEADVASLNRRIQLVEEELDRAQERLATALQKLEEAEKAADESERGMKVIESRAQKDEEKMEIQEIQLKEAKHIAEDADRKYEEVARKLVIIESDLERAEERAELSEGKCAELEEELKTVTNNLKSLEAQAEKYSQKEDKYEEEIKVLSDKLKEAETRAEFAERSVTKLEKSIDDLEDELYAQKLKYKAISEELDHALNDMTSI
rabbit psoas myosin, sequence (Q28641 whole entry, looked up): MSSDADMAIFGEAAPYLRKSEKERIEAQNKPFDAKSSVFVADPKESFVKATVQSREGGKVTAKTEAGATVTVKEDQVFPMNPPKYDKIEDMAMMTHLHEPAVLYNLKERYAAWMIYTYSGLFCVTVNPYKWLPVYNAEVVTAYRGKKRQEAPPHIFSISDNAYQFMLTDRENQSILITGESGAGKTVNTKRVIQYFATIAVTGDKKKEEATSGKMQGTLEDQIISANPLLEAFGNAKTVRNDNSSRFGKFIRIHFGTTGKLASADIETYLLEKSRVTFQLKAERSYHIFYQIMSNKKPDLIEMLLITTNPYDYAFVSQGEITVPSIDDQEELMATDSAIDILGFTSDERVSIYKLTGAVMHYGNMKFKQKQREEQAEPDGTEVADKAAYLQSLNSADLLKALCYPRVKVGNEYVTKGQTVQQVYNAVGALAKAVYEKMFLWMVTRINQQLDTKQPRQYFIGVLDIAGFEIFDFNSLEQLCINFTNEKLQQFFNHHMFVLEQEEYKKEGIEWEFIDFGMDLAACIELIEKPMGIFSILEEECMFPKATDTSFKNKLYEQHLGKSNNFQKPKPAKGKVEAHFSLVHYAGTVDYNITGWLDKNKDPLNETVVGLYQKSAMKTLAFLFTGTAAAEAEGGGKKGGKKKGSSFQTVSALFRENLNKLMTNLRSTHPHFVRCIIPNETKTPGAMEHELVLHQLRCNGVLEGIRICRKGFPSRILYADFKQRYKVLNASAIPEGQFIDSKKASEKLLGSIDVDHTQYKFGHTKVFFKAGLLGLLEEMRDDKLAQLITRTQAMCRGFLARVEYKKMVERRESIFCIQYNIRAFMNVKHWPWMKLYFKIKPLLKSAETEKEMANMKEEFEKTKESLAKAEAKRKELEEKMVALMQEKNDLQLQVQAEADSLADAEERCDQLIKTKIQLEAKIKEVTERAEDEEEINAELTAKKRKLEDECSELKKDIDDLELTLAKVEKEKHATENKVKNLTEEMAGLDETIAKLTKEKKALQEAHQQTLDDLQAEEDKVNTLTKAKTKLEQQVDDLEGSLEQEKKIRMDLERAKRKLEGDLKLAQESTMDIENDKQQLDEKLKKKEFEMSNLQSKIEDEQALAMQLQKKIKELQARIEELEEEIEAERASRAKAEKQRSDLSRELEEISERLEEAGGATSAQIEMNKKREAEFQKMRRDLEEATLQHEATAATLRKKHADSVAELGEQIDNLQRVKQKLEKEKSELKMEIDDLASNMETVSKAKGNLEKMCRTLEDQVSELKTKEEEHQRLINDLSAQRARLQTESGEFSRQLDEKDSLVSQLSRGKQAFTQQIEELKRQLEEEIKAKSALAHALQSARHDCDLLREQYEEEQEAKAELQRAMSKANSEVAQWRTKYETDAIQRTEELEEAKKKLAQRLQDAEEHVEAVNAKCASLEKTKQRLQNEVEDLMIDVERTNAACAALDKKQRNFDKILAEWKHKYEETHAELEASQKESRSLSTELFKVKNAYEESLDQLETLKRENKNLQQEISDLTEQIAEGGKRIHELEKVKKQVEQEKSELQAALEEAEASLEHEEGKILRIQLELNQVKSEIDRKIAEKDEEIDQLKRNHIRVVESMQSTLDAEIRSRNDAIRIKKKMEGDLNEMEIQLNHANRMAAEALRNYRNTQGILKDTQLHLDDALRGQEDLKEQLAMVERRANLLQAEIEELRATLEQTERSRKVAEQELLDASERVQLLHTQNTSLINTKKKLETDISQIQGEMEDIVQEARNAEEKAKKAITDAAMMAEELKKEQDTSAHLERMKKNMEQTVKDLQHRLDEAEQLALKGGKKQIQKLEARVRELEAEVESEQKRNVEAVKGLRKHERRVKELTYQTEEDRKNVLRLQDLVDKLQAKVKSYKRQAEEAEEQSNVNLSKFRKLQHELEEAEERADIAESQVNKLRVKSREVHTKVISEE

Substance	Filaments moving (%) in in vitro motility at 30 °C with 300 nM Tpm, rabbit psoas myosin 12.5 to 100 µg ml^-1 (14.96 to 62.87 %) [1] [%]	Filaments moving (%) in in vitro motility at 30 °C with 300 nM Tpm, rabbit psoas myosin 12.5 to 100 µg ml^-1 (21.17 to 71.16 %) [2] [%]	Filaments moving (%) in in vitro motility at 30 °C without Tpm, rabbit psoas myosin 12.5 to 100 µg ml^-1 (31.02 to 68.11 %) [1] [%]	Filaments moving (%) in in vitro motility at 30 °C without Tpm, rabbit psoas myosin 12.5 to 100 µg ml^-1 (32.57 to 68.00 %) [2] [%]
porcine cardiac tropomyosin (Tpm) (from UniProt P42639 1-284) (natural protein)	62.9	71.2	–	–
rabbit psoas myosin (from UniProt Q28641 1-1938) (complex)	–	–	68.1	68
